Measurements reported in patent US20050069887A1, “Dna synthesis promoters dna polymerase-associated factors and utilization thereof” (priority 2001, published 2005).

B1: KOD-PCNA (proliferating cell nuclear antigen) derived from Thermococcus kodakaraensis KOD1 (other)
chain: PFEVVFDGAKEFADLIATASNLIDEAAFKFTEEGISMRAMDPSRVVLIDLNLPESIFSKYEVEEPETIGINMDQFKKILKRGKAKDTLILRKGDENFLEITFEGTAKRTFRLPLIDVEELELELPELPFTAKVVLLGEVLKEGIKDASLVSDAIKFIAKENEFTMKAEGETNEVEIRLTLEDEGLLDLEVEEETKSAYGISYLSDMVKGIGKADEVILRFGNEMPLQMEYMIRDEGRLTFLLAPRVEE
notes: also called KOD-PCNA protein; KOD-PCNA complex
B2: Pfu polymerase: DNA polymerase derived from Pyrococcus furiosus (protein, UniProt P61875 1-775, looked up)
DNA polymerase: MILDVDYITEEGKPVIRLFKKENGKFKIEHDRTFRPYIYALLRDDSKIEEVKKITGERHGKIVRIVDVEKVEKKFLGKPITVWKLYLEHPQDVPTIREKVREHPAVVDIFEYDIPFAKRYLIDKGLIPMEGEEELKILAFDIETLYHEGEEFGKGPIIMISYADENEAKVITWKNIDLPYVEVVSSEREMIKRFLRIIREKDPDIIVTYNGDSFDFPYLAKRAEKLGIKLTIGRDGSEPKMQRIGDMTAVEVKGRIHFDLYHVITRTINLPTYTLEAVYEAIFGKPKEKVYADEIAKAWESGENLERVAKYSMEDAKATYELGKEFLPMEIQLSRLVGQPLWDVSRSSTGNLVEWFLLRKAYERNEVAPNKPSEEEYQRRLRESYTGGFVKEPEKGLWENIVYLDFRALYPSIIITHNVSPDTLNLEGCKNYDIAPQVGHKFCKDIPGFIPSLLGHLLEERQKIKTKMKETQDPIEKILLDYRQKAIKLLANSFYGYYGYAKARWYCKECAESVTAWGRKYIELVWKELEEKFGFKVLYIDTDGLYATIPGGESEEIKKKALEFVKYINSKLPGLLELEYEGFYKRGFFVTKKRYAVIDEEGKVITRGLEIVRRDWSEIAKETQARVLETILKHGDVEEAVRIVKEVIQKLANYEIPPEKLAIYEQITRPLHEYKAIGPHVAVAKKLAAKGVKIKPGMVIGYIVLRGDGPISNRAILAEEYDPKKHKYDAEYYIENQVLPAVLRILEGFGYRKEDLRYQKTRQVGLTSWLNIKKS

What was measured:
[1] = system: M13 single-stranded DNA; settings: Takagi et al. 1997; cited from earlier work
[2] = system: pMol 21; settings: PCR product fidelity, rpsL / pMol 21 method; cited from earlier work
[3] = target: T1, KOD DNA polymerase (DNA polymerase derived from Thermococcus kodakaraensis KOD1) (Thermococcus kodakaraensis KOD1, UniProt P77933 1-1671); assay: cell-based or functional assay
T1 sequence: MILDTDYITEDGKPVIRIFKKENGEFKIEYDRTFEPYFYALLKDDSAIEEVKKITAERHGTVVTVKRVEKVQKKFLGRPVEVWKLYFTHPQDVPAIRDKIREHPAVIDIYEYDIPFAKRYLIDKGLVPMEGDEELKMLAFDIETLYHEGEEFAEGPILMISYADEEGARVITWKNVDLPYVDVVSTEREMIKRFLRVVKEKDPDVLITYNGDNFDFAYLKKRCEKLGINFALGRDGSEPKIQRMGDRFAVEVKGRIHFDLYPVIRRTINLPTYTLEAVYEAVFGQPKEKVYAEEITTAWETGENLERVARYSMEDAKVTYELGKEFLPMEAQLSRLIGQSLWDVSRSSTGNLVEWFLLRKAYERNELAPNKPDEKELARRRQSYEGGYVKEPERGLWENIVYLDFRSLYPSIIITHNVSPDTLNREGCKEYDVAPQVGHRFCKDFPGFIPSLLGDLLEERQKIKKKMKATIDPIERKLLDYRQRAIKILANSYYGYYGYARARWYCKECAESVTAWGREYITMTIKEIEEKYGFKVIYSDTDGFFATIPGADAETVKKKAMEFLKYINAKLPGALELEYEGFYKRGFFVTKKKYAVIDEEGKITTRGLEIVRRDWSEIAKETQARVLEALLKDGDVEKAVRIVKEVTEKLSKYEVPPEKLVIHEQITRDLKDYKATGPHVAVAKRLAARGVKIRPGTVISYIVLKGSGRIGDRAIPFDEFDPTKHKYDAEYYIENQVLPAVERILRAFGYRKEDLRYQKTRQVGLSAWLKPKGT

[4] = target: the molecule itself; assay: gel filtration HPLC (TSKgel G3000SW), molecular weight against standard samples

| Molecule | DNA elongation rate [1] | mutation rate [2] | DNA elongation rate relative to the sample with no PCNA added [3] | binding result [4] |
| --- | --- | --- | --- | --- |
| Taq polymerase: DNA polymerase derived from Thermus aquaticus | 61.0 bases/second | ≥ 4% |  |  |
| B1 |  |  | ~3 times | binds |
| B2 | 24.8 bases/second |  |  |  |
